Experimental data from article PMC7605111.
Values joined by “and” are separate entries in the source; they are usually repeats but may differ in a detail not shown here. Equal values may be shown once.

Columns and labels:
[1] = target: class II fructose-1,6-bisphosphatase from Francisella tularensis (Francisella tularensis); test: crystal structure
[2] = target: class II fructose-1,6-bisphosphatase from Francisella tularensis (Francisella tularensis); test: SEC

class II fructose-1,6-bisphosphatase from Francisella tularensis (enzyme)
stoichiometry N [1]: 4
stoichiometry N [2]: 2 and 4
